Test results published in patent US20240228562A1, “NOVEL LIPOCALIN MUTEINS SPECIFIC FOR CONNECTIVE TISSUE GROWTH FACTOR (CTGF)” (PIERIS PHARMACEUTICALS GMBH, priority 2021, published 2024).

Tests used:
[1] = molecular target: T1, muCTGF domains 1 and 2 with human Fc tag (Mus musculus, UniProt P29268); assay: ELISA binding to CTGF fragments, murine CTGF domains 1 and 2; settings: coated 1 μg/ml, muteins from 1000 nM; for EC50: read-out: EC Murine CTGF1-2-huFc
T1 construct: purchased Evitria
Experimental: (§1) Binding of muteins to fragments of human and murine CTGF was tested by an ELISA assay. In detail, a 384-well plate suitable for fluorescence measurements (Greiner FLUOTRAC™ 600, black flat bottom, high-binding) was coated with 20 μl of human (R&D Systems, SEQ ID NO 79) and murine CTGF (Biozol, SEQ ID NO: 80) or fragments thereof (Evitria, huCTGF domains 1 and 2 with human Fc tag (SEQ ID NO 77) and muCTGF domains 1 and 2 with human Fc tag (SEQ ID NO 78)) at a concentration of 1 μg/ml in PBS over night at 4° C. After washing with PBS with 0.05% Tween 20, wells were blocked with 100 μl blocking buffer containing 0.1% Tween 20 and 2% BSA (PBS-T/BSA) for 1 h at room temperature. 20 μl of serially diluted muteins starting at 1000 nM were incubated in PBS-T/BSA for 1 h at room temperature.
(§2) The residual supernatants were discarded and 20 μl HRP-labeled anti-Strep-Tag antibody was added at a predetermined optimal concentration in PBS-T/BSA and incubated for 1 h at RT. After washing, 20 μl fluorogenic HRP substrate (QuantaBlu, Thermo) was added to each well, and the reaction was allowed to proceed for 5 to 25 minutes. The fluorescence intensity of every well on the plate was read using a fluorescence microplate reader (Tecan). Curve fitting was performed using GraphPad Prism 7 software.

[2] = molecular target: T2, huCTGF domains 1 and 2 with human Fc tag (Homo sapiens, UniProt P29279); assay: ELISA binding to CTGF fragments, human CTGF domains 1 and 2; settings: coated 1 μg/ml, muteins from 1000 nM; for EC50: read-out: EC Human CTGF1-2-huFc
T2 construct: purchased Evitria
T2 sequence (P29279 with tags, fused parts or gaps): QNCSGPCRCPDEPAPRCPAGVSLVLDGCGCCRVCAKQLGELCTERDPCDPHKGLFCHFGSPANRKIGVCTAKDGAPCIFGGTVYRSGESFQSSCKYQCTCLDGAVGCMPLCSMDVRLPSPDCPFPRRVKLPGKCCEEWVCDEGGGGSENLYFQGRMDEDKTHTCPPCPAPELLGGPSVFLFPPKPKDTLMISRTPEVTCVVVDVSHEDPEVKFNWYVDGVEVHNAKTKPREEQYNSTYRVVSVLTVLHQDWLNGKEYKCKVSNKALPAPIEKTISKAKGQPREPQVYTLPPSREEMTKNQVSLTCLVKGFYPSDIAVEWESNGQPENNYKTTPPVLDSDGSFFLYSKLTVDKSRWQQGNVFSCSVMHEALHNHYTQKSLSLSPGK
Experimental: as §1, §2

[3] = Nebulization behavior, droplet size distribution by laser diffraction; type: physicochemical; settings: vibrating mesh nebulizer, Malvern Spraytec
Experimental: The suitability of the CTGF-targeting lipocalin muteins and fusion proteins disclosed herein for administration via inhalation was tested using a commercially available vibrating mesh nebulizer (Philips InnoSpire Go®). Droplet size distribution was characterized by laser diffraction using the nebulizer in conjunction with Malvern Spraytec and inhalation cell.
Representative data for the exemplary CTGF-targeting lipocalin mutein of SEQ ID NO: 23 (A) and for the fusion protein of SEQ ID NO: 74 (B) are shown in FIG. 5 and below Table 10. […] Nebulization of the lipocalin muteins and fusion proteins had no negative impact on the stability and activity of the molecules (data not shown).

[4] = system: TGF-β1-stimulated normal human lung fibroblasts (NHLFs); assay: Binding to activated human lung fibroblasts; type: cell-based; settings: 24 h incubation with 10 ng/ml TGF-β1; immunofluorescence of lipocalin scaffold
Experimental: Binding of the CTGF-targeting lipocalin muteins and fusion proteins disclosed herein to CTGF-expressing, TGF-β1-stimulated normal human lung fibroblasts (NHLFs) was tested by incubating NHLFs for 24 h with constructs and 10 ng/ml TGF-β1, which induces CTGF expression. NHLFs without TGF-β1 stimulation were included as negative control. Constructs were detected with a secondary antibody against the lipocalin scaffold coupled to AlexaFluor647 after NHLFs were fixed in 4% PFA and blocked with 5% BSA. Images were acquired on the Cytation5 Reader (Biotek). Signals were quantified in Gene5 software and normalized to the respective controls. For the experiments, cells were grown under conditions that facilitate pseudo-3D extracellular matrix deposition as described by Good et al. (Good et al., BMC Biomed Eng, 1:14 (2019)).
Representative data are shown in FIG. 4 and illustrate the ability of the CTGF-targeting lipocalin muteins and fusion proteins disclosed herein to bind to activated human lung fibroblasts expressing CTGF in a concentration-dependent manner.

cynomolgus CTGF = assay: SPR binding kinetics and affinity, cynomolgus CTGF; design: key: B binding without determination of kinetics constants; settings: 25° C., 1:1 binding model
Chain of cynomolgus CTGF (as listed by the source): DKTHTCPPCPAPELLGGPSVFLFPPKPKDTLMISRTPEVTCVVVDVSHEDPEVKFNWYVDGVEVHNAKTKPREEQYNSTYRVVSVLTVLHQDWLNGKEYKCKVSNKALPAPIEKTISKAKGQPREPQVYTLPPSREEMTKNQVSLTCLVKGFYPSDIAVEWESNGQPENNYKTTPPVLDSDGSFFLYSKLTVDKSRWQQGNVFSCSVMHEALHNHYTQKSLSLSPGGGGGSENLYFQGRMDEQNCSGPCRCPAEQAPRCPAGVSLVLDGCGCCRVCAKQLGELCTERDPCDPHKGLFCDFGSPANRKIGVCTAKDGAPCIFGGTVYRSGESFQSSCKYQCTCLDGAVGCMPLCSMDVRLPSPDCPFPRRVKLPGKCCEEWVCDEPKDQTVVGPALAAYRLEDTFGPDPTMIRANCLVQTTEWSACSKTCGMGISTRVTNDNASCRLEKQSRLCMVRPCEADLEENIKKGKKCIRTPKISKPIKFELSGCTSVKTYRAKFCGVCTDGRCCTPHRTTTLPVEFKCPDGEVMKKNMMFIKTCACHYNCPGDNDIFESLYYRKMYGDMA
Experimental: Surface plasmon resonance (SPR) was used to measure binding kinetics and affinity of the representative lipocalin muteins disclosed herein.
The binding of exemplary lipocalin muteins to human (Creative Biomart), cynomolgus, rat (R&D Systems) and mouse CTGF (Abbexa) was determined by SPR using a Biacore instrument (Cytiva, formerly GE Healthcare). Some targets were fused to a human IgG1 Fc tag, and captured via the anti-human IgG antibody kit, others were directly immobilized.
For some measurements, human CTGF with a human IgG1 Fc Tag or rat or murine CTGF without a tag were directly immobilized to a CM5 Chip. The carboxyl groups on the chip were activated using 1-ethyl-3-(3-dimethylaminopropyl)-carbodiimide (EDC) and N-hydroxysuccinimide (NHS). Subsequently, the targets at a concentration of 3-5 μg/mL in 10 mM sodium acetate (pH) 4.5 were applied at a flow rate of 10 μL/min until an immobilization level of 300-1100 resonance units was achieved. Residual non-reacted NHS-esters were blocked by passing a solution of 1 M ethanolamine across the surface. The reference channel was activated/deactivated. For the capture setting, targets with an IgG Fc Tag at 0.25-2.5 μg/mL in HBS-EP+ buffer were captured by the anti-human IgG-Fc antibody at the chip surface for 180 s at a flow rate of 10 μL/min.
The binding assay was carried out with a contact time of 180 s, a dissociation time of 900-3600 s and a flow rate of 30 μL/min. All measurements were performed at 25° C. […] For the directly immobilized targets, the same regeneration conditions were used. Prior to the protein measurements, three startup cycles were performed for conditioning purposes. Data were evaluated with Biacore Evaluation software. Double referencing was used and the 1:1 binding model was used to fit the raw data.
The values determined for kon, koff and the resulting equilibrium dissociation constant (KD) for exemplary lipocalin muteins are summarized in Table 4.

CTGF = molecular target: T3, CTGF (Homo sapiens, UniProt P29279); assay: ELISA-based competition assay with anti-CTGF antibody; type: binding; settings: data not shown
T3 sequence (P29279 27-349): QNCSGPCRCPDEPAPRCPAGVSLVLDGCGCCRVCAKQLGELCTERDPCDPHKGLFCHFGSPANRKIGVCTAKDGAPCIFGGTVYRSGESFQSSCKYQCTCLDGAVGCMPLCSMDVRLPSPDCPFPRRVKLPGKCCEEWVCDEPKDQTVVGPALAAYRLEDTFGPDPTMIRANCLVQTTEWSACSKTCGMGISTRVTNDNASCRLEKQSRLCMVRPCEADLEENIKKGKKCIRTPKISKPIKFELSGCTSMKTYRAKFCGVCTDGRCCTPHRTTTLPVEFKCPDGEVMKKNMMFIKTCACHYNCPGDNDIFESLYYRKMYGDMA

T1 sequence (P29268 with tags, fused parts or gaps): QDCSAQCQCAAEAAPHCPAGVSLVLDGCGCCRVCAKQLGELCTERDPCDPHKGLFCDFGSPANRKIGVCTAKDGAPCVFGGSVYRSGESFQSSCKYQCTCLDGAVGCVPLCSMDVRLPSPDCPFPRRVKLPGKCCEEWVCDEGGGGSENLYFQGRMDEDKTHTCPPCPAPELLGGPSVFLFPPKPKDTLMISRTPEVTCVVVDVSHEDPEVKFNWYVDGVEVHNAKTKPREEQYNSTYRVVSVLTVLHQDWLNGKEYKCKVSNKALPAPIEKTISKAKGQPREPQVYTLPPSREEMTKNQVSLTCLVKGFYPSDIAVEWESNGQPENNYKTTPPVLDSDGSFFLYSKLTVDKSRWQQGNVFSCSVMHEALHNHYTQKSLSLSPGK

B1: SEQ ID NO: 29: parent CTGF-binding hNGAL lipocalin mutein (protein)
chain: QDSTSDLIPAPPLSKVPLQQNFQDNQFHGKWYVVGWAGNIKLREDKDPFKMSATIYELKEDKSYNVTEVVFEQKKCHYIIKTFVPGSQPGEFTLGDIKSPPGETSSLVRVVSTNYNQHAMVFFKKVFQNREFFWITLYGRTKELTSELKENFIRFSKSLGLPENHIVFPVPIDQCIDG
modifications: lipocalin mutein
- EC50 [1]: 17 nM
- EC50 [2]: 8.4 nM

B2: SEQ ID NO: 74: fusion protein comprising two CTGF-binding lipocalin muteins (protein)
chain: QDSTSDLIPAPPLSKVPLQQNFQDNQFQGKWYVVGLAGNAILREDKQPAKMFATIYELKEDKSYDVTSVRFEAKSCKYTIKTFVPGSQPGEFTAGYIKSAPGQTSTLVRVVSTNYNQHAMVFFKHVTQNREIFVITLYGRTKELTSELKENFIRFSKSLGLPENHIVFPVPIDQCIDGGGGGSGGGGSGGGGSQDSTSDLIPAPPLSKVPLQQNFQDNQFQGKWYVVGWAGNVKLREDKQPQKMSATIYELKEDKSYDVTEVVFEQKKCHYIIKTFVPGSQPGEFTAGDIKSPPGYTSSLVRVVSTNYNQHAMVFFKKVSQNREFFWITLYGRTKELTSELKENFIRFSKSLGLPENHIVFPVPIDQCIDG
modifications: fusion protein
- % V < 1 μm [3]: 0.984%
- % V < 5 μm [3]: 54.81%
- % V < 10 μm [3]: 88.4%
- Dv10 [3]: 1.8 μm
- Dv50 [3]: 4.6 μm
- Dv90 [3]: 10.5 μm
- Dv10 ([3]; listed as 74): 1.824 μm
- Dv50 ([3]; listed as 74): 4.589 μm
- Binding to TGFβ-activated NHLFs [4]: binding

B3: SEQ ID NO: 25: parent CTGF-binding hNGAL lipocalin mutein (protein)
chain: QDSTSDLIPAPPLSKVPLQQNFQDNQFHGKWYVVGMAGNFRLREDKDPSKMGATIYELKEDKSYNVTQVQFDDKKCLYVIETFVPGSQPGEFTLGAIKSFPGFTSQLVRVVSTNYNQHAMVFFKKVYQNREVFWITLYGRTKELTSELKENFIRFSKSLGLPENHIVFPVPIDQCIDG
modifications: lipocalin mutein
- EC50 [1]: 14 nM
- EC50 [2]: 8.8 nM

B4: SEQ ID NO: 3: parent CTGF-binding hNGAL lipocalin mutein (protein)
chain: QDSTSDLIPAPPLSKVPLQQNFQDNQFHGKWYVVGRAGNNRLREDKDPPKMWATIYELKEDKSYNVTHVHFMTKKCRYIIDTFVPGSQPGEFTLGAIKSGPGMTSPLVRIVSTNYNQHAMVFFKWVNQNREWFTITLYGRTKELTSELKENFIRFSKSLGLPENHIVFPVPIDQCIDG
modifications: lipocalin mutein
- EC Murine CTGF1-2-huFc [1]: n.b.
- EC Human CTGF1-2-huFc [2]: n.b.

B5: SEQ ID NO: 23: optimized CTGF-binding hNGAL lipocalin mutein (protein)
chain: QDSTSDLIPAPPLSKVPLQQNFQDNQFQGKWYVVGVAGNAILRPDKQPAKMFATIYELKEDKSYDVTSVRFEAKSCKYTIKTFVPGSQPGEFTSGQIKSAPGQTSTLVRVVSTNYNQHAMVFFKHVSQNREIFVITLYGRTKELTSELKENFIRFSKSLGLPENHIVFPVPIDQCIDG
modifications: lipocalin mutein
- % V < 1 μm [3]: 1.874%
- % V < 5 μm [3]: 68.97%
- % V < 10 μm [3]: 93.55%
- Dv10 [3]: 1.4 μm
- Dv50 [3]: 3.5 μm
- Dv90 [3]: 8.6 μm
- Dv10 ([3]; listed as 23): 1.471 μm
- Dv50 ([3]; listed as 23): 3.484 μm
- Dv90 ([3]; listed as 23): 8.622 μm
- Binding to TGFβ-activated NHLFs [4]: binding
- cynomolgus CTGF KD (cynomolgus CTGF): B
- cynomolgus CTGF koff (cynomolgus CTGF): B
- cynomolgus CTGF kon (cynomolgus CTGF): B
- Competition with antibody of SEQ ID NOs: 60 and 61 for binding to CTGF (CTGF): competed with the antibody

B6: SEQ ID NO: 9: parent CTGF-binding hNGAL lipocalin mutein (protein)
chain: QDSTSDLIPAPPLSKVPLQQNFQDNQFHGKWYVVGLAGNKILRIDKQPAKMFATIYELKEDKSYDVTSVRFEARSCSYTIKTFVPGSQPGEFTAGNIKSAPGQTSTLVRVVSTNYNQHAMVFFKHVSQNRETFVITLYGRTKELTSELKENFIRFSKSLGLPENHIVFPVPIDQCIDG
modifications: lipocalin mutein
- EC50 [1]: 5.8 nM
- EC50 [2]: 8 nM

B7: SEQ ID NO: 15: optimized CTGF-binding hNGAL lipocalin mutein (protein)
chain: QDSTSDLIPAPPLSKVPLQQNFQDNQFQGKWYVVGLAGNAILREDKQPAKMFATIYELKEDKSYDVTSVRFEAKSCKYTIKTFVPGSQPGEFTAGYIKSAPGQTSTLVRVVSTNYNQHAMVFFKHVTQNREIFVITLYGRTKELTSELKENFIRFSKSLGLPENHIVFPVPIDQCIDG
modifications: lipocalin mutein
- cynomolgus CTGF koff (cynomolgus CTGF): 7.57e-05 s⁻¹
- cynomolgus CTGF kon (cynomolgus CTGF): 107000 M⁻¹ s⁻¹

B8: SEQ ID NO: 7: parent CTGF-binding hNGAL lipocalin mutein (protein)
chain: QDSTSDLIPAPPLSKVPLQQNFQDNQFHGKWYVVGLAGNYGLRTDKRPSKMFATIYELKEDKSYDVTSVRFEQERCHYTIRTFVPGSQPGEFTTGSIKSRPGQTSSLVRVVSTNYNQHAMVFFKSVIQNREYFAITLYGRTKELTSELKENFIRFSKSLGLPENHIVFPVPIDQCIDG
modifications: lipocalin mutein
- EC50 [1]: 14 nM
- EC50 [2]: 17 nM
